T1: GFP-9S library array, motif 4 ND N98C;D124K (synthetic construct, N98C;D124K)
T1 chain: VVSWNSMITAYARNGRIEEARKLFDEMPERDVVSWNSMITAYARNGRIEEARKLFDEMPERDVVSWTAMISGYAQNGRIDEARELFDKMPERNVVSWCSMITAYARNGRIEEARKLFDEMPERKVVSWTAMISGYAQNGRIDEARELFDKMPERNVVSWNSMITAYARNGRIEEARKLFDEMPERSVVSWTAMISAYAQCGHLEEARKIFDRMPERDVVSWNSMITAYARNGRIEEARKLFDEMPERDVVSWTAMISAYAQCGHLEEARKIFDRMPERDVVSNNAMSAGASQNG

T2: GFP-9S library array, motif 4 ND N98H;D124F (synthetic construct, N98H;D124F)
T2 chain: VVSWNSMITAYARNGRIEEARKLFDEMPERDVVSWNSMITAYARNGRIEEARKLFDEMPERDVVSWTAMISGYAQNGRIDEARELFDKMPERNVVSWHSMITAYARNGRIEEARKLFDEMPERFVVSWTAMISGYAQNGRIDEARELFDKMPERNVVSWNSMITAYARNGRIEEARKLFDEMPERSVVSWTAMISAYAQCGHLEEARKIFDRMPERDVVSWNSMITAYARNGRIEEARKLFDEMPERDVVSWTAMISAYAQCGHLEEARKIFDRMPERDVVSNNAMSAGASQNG

T3: GFP-9S library array, motif 4 ND N98T (synthetic construct, N98T)
T3 chain: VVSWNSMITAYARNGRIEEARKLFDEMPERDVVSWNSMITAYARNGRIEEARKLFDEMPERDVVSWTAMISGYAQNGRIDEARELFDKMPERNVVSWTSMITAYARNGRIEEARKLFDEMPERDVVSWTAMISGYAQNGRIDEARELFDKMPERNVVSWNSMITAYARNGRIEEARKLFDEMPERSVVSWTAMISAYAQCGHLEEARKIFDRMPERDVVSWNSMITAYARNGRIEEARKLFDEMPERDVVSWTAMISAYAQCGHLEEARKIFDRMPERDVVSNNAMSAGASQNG

T4: GFP-9S library array, motif 4 ND N98I;D124W (synthetic construct, N98I;D124W)
T4 chain: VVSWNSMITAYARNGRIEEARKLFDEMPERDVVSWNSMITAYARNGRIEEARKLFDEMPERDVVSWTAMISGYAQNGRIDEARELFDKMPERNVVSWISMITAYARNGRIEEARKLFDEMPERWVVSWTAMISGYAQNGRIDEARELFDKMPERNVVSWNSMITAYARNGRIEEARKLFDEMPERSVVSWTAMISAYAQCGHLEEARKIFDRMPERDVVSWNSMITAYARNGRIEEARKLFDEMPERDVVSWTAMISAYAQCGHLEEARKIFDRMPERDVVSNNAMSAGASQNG

T5: GFP-9S library array, motif 4 ND N98K;D124P (synthetic construct, N98K;D124P)
T5 chain: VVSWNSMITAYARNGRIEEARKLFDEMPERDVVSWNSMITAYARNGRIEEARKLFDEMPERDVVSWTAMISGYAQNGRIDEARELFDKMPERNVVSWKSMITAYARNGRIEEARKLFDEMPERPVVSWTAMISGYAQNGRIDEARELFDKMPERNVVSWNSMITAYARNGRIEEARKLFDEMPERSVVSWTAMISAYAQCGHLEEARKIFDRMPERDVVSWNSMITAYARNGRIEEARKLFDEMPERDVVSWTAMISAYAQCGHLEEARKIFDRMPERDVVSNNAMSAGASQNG


How the values were obtained:
Assay in all cases: high-throughput RNA pulldown from lysate on Ni-NTA beads; HRP: 50 mM Tris pH 8, 150 mM NaCl, 1 mM beta-mercaptoethanol, 50 ug/ml BSA, 3 ug/ml yeast RNA, 0.5% heparin; ITC and FP: Tris pH 8, 200 mM KCl, 5% glycerol; MST: 50 mM Tris pH 8, 200 mM NaCl, 1 mM DTT, BSA, heparin, 0.05% Tween 20
Settings in all cases: tags: N-terminal His-eGFP
[1] = biological target: T1, GFP-9S library array, motif 4 ND …
[2] = biological target: T2, GFP-9S library array, motif 4 ND …
[3] = biological target: T3, GFP-9S library array, motif 4 ND N98T
[4] = biological target: T4, GFP-9S library array, motif 4 ND …
[5] = biological target: T5, GFP-9S library array, motif 4 ND …

Binder	Kd ([1]; label: 5' IRDye 800CW)	Kd ([2]; label: 5' IRDye 800CW)	Kd ([3]; label: 5' IRDye 800CW)	Kd ([4]; label: 5' IRDye 800CW)	Kd ([5]; label: 5' IRDye 800CW)	Kd ([1]; label: 5' Cy5)	Kd ([2]; label: 5' Cy5)	Kd ([3]; label: 5' Cy5)	Kd ([4]; label: 5' Cy5)	Kd ([5]; label: 5' Cy5)
AUUAAACGUGA (ssRNA) [IR-rpoA-A]	66.3 nM	320 nM	91.7 nM	252 nM	194 nM	–	–	–	–	–
AUUAUACGUGA (ssRNA) [IR-rpoA-U]	139 nM	204 nM	23 nM	136 nM	76.4 nM	–	–	–	–	–
AUUACACGUGA (ssRNA) [Cy5-rpoA]	–	–	–	–	–	96.2 nM	140 nM	97.5 nM	74.5 nM	107 nM
AUUAGACGUGA (ssRNA) [Cy5-rpoA-G]	–	–	–	–	–	91.1 nM	134 nM	5.06 nM	98.3 nM	105 nM
